Laboratory results: patent US20230050380A1 (CHIOME BIOSCIENCE, published 2023)

Experiments:
[1] = target: T1, full-length hCDCP1 with N-terminal c-Myc tag (expression vector GS01), on Ba/F3-hCDCP1 cells or … (human, UniProt Q9H5V8 30-836); test: flow cytometry on untreated Ba/F3-hCDCP1 cells (comparison of FIG. 8)
T1 construct: also called human CDCP1; hCDCP1 forced expression cells
T1 sequence: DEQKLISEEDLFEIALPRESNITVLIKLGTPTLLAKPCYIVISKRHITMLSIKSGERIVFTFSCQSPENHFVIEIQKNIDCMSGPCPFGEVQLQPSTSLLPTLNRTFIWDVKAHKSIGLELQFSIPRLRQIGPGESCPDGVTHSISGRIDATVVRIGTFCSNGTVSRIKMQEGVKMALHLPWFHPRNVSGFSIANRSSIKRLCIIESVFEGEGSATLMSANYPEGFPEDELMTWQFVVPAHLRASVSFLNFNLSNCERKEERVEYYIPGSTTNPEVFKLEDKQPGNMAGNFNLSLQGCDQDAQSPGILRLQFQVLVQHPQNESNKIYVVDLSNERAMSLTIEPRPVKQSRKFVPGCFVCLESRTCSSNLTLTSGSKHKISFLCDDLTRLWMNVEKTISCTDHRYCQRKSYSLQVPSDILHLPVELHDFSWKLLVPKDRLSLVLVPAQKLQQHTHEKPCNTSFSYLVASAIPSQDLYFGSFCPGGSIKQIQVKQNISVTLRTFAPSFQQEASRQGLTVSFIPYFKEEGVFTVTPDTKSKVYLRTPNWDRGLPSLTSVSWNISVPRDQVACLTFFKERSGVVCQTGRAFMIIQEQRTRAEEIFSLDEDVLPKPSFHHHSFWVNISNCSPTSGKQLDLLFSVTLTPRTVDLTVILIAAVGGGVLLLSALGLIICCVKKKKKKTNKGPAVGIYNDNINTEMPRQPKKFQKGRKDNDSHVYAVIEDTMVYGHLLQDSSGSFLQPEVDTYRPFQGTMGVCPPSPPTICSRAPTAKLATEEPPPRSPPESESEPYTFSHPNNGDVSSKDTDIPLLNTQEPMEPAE
Method: In order to investigate whether the obtained anti-hCDCP1 mouse-human chimeric antibodies bind to the N-terminal side of the serine protease cleavage site of the hCDCP1 molecules or bind to the transmembrane region side, […] the technique mentioned in the previous section. The following anti-hCDCP1 mouse-human chimeric antibody clones were evaluated: [0259] mh12A041HCori/LCori, mh14A025HCori/LCori, mh14A043HCori/LCori, mh14A055, mh14A063HCori/LCori, and mh14A091.
[…] It was confirmed by the same Western blotting as that mentioned in the previous section that the full-length hCDCP1 disappeared and only the cleaved hCDCP1 was present in the above-treated Ba/F3-CDCP1 cells. With respect to these cells, a dilution series of anti-hCDCP1 mouse-human chimeric antibodies from 5 μg/mL to 5 ng/mL was prepared, and was then reacted at 4° C. for 30 minutes. As a negative control, a similar dilution series of anti-RS virus antibodies described in the later section was prepared as a non-specific human IgG, and was then reacted at 4° C. for 30 minutes.

[2] = target: T2, crab-eating macaque CDCP1 with N-terminal c-Myc tag (expression vector GS02), on crab-eating macaque … (crab-eating macaque (Macaca …, UniProt Q9H5V8 30-836 (human entry))); test: flow cytometry on crab-eating macaque CDCP1-expressing CHO-K1 cells
T2 chain: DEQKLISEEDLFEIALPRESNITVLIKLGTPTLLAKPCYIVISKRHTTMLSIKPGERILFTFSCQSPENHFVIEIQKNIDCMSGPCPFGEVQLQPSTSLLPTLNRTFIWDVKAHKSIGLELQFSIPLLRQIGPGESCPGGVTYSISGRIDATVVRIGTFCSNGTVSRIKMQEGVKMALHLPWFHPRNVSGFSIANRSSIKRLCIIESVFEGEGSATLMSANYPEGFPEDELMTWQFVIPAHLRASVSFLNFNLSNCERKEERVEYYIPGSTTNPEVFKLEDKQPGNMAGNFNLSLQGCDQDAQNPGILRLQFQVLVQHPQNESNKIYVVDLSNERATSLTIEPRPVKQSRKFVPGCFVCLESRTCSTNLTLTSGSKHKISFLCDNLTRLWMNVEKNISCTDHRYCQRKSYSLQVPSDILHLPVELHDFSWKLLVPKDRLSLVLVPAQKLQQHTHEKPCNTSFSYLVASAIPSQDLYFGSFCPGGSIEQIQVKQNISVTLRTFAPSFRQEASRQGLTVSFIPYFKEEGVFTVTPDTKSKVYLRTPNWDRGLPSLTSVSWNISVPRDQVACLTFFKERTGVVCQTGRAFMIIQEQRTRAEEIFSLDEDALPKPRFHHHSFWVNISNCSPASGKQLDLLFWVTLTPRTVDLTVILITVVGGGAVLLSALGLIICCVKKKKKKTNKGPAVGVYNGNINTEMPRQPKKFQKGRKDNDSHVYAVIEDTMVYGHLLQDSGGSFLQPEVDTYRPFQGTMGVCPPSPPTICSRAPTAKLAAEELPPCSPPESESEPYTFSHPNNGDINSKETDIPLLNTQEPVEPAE
Text: The hCDCP1-expressing CHO-K1 cells and the crab-eating macaque CDCP1-expressing CHO-K1 cells were exfoliated and dispersed using 0.25% trypsin/EDTA (Nacalai Tesque, Inc.), and were then reacted with various concentrations of individual mouse-human chimeric antibodies, namely, mh12A041HCori/LCori, mh14A025HCori/LCori, mh14A043HCori/LCori, mh14A055, mh14A063HCori/LCori, and mh14A091. Thereafter, the binding property of the antibodies was observed by flow cytometry (FIG. 9). As a result, these 6 antibodies all reacted with the crab-eating macaque CDCP1, and in particular, the 5 antibodies other than mh14A055 reacted with both the human CDCP1 and the crab-eating macaque CDCP1 at the same levels.

binding result [1]: binds
binding result [2]: binds
B1: mh14A091 (antibody, human IgG1, kappa, V domains shown)
VH: EVQLQESGAELARPGASVKLSCKASGYTFTSYWMQWVKQRPGQGLEWIGAIYPGDGDTRYTQKFKGKATLTADKSSSTAYMQLSSLASEDSAVYYCAGYDAPWFAYWGQGTLVTVSS
VL: NIVLTQSPASLAVSLGQRATISCRASESVDSYGNSFMHWYQQKPGQPPKLLIYLASNLESGVPARFSGSGSRTDFTLTIDPVEADDAATYYCQQNNEDPWTFGGGTKLEIKR
notes: mouse-human chimeric antibody of 14A091, human IgG1/kappa constant regions
